Laboratory results: the nanobody polyreactivity screen of Harvey et al. (2022)

Assay: yeast display, Sf9 membrane polyspecificity reagent, FACS + sequencing; frameworks hold sequencing errors
In short: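 A synthetic nanobody library was expressed on Saccharomyces cerevisiae BJ5465 by galactose induction for 36–48 hours. The library was stained for 1 hour at 4 °C with 10% biotinylated, detergent-solubilized Sf9 membrane reagent and enriched with streptavidin microbeads before FACS. Low and high (top ~1%) gates were set on anti-HA fluorescence for expression and streptavidin fluorescence for reagent binding, and each polyreactivity label reflects the gate of origin.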

Q: For “QVQLVESGGGLVKAGGSLRLSCDASGSILWENAMGWYRQAPGKERELVATISVSGGGTYYADSVKGRFTISRDNAKNTVYLQMNSLKPEDTAVYYCNARYGNESQGWEDYWGKGTQVTVSS”, which “polyreactivity (PSR sort gate)” value is on record?
A: low polyreactivity

Q: Which “polyreactivity (PSR sort gate)” value does the source give for “QVQLVESGGGLVQAGGSLRLSCAASGRTFYVYTMGWYRQAPGKERELVAANTSGGSTNYADSVKGRFTISRDNAKNTVYLQMNSLKPEDTAVYYCAARVSTVFKRYYYWGQGTQVTVSS” here?
A: high polyreactivity

Q: With “QVQHVESGGGLVQAGGSLRLICAASGLTSYYAMGSYRQAPGKEREIVAAIDGSDGNTYYADSVKGRYTISRDNAKNTVYLQMNSLKPEYTAVYYCNAETVLYWWSWENDYWGQGTQVTVSL” as the sequence, how does the “polyreactivity (PSR sort gate)” value read?
A: high polyreactivity

Q: For “QVQLAESGGGLVQAGVSLRISCAASGSTFSVYAMGWYRQAPGKERELVATIRRGGSTYADSVKGRFTISRDNAKITVYLQMNRLKPEDTAVYYCASDAYVSYQPMDYWGQGTQVTVSS”, which “polyreactivity (PSR sort gate)” value is on record?
A: high polyreactivity

Q: With “QAQSVESGGGLVQAGGSLRLICAASGITFGNYAMGWYRQAPGKERALVASISWNVGSTYYADSVKGRFTISRDNAKNTVYLQMNSLKPEDTSVYYCARGYDRPRVATFHRFDYWGQGTQVTVSS” as the sequence, how does the “polyreactivity (PSR sort gate)” value read?
A: low polyreactivity

Q: For “QVQLVESGGGLVQAGGSLRLSCAASGRTFRYYTMGWYRQAPGKERELVAAISRGGRTYYADSVKGRFTISRDNAKNTVYLQMNSLKPEDTAVYYCAAQLFREYYYWGQGTQVTVSS”, which “polyreactivity (PSR sort gate)” value is on record?
A: high polyreactivity

Q: Which “polyreactivity (PSR sort gate)” value does the source give for “QVQLVESGGGLVQAGGSLRLSCAASGLTLSYNAMGWYRQAPGKERELVAAIRSGGSTNYADSVKGRFTISRDNAKNTVYLQMNSLKPVDTAVYYCAARFRYLPYRYGRYQSGYEYWGQGTQVTVSS” here?
A: high polyreactivity

Q: With “QVQLVESGGGLVQAGGSLRVICAASGLIFYGYMGWSRQAPGKERELVAAISYTGGSTYYADSVKGRFTISRDNAKNTVYVQMNSLKPEDTAVYYCARDWRTKWFGYWGQGTQVTVSS” as the sequence, how does the “polyreactivity (PSR sort gate)” value read?
A: low polyreactivity

Q: For “QVQLVESGGGLVQAGGSLRLSCAASGFTFGHYVMGWSRQAPGKERELVAAITLSGGGTYYADSVKGRFTISRDNAKNTVYLQMNSLKPEDTAVYYCAAVGGEHAKKTYSRYKVDYWGQGTQVTVSS”, which “polyreactivity (PSR sort gate)” value is on record?
A: low polyreactivity

Q: Which “polyreactivity (PSR sort gate)” value does the source give for “QVQLVESGGGLVQAGGSLRLSCAASGITIYVYAMGWYRQAPGTERELVAAITRSGGITSYADSVKGRFTISRDNAKNTVYLQMNSLKPEDTAVYYVAAESTNLHYHIQGVGYWGQGTQVTVSS” here?
A: low polyreactivity

Q: With “QVQLVESGGGLVQAGGSLRLSCAASNSSINAMGWYRQAPGKERELVAAIRWSGSSTYYADSEKGRFPISRDNAKTTVYLQMNSLKPEDTAVYYCAADTTTGDRGFDYWGQGTQVTVSS” as the sequence, how does the “polyreactivity (PSR sort gate)” value read?
A: high polyreactivity

Q: With “QVQLVESGGGLVQAGGSLRLSCAASGFTFRSYAMGWYRQAPGKEREFVAAINGRSGSTYADSVKGRFTISRDNAKNTVYLQMTSLKPEDTAVYYCAARVRRGSTQAQYYYWGQGTQVTVSS” as the sequence, how does the “polyreactivity (PSR sort gate)” value read?
A: high polyreactivity

Q: With “QVQLVESGGGLVQAAGSLRLSCAASVITFVKNAMGWYRQAPGKERELVARIRIGGSTSYADSVKGRFTISRDYAKNTFYLQLNSLKPEDTAVYYCARYAGRLSYRYEYWGQGTQVTVSS” as the sequence, how does the “polyreactivity (PSR sort gate)” value read?
A: high polyreactivity

Q: With “QVQLVESGGGLVQAGGSLRLSCAASGSIFGWYAMGWYRQAPGKERELVAAITFSSVSTYYADSVKGRFTISRDTAKNTVYLQMNSLKPEDTAVYYCAAVVYYTFDYWGQGTQVTVSS” as the sequence, how does the “polyreactivity (PSR sort gate)” value read?
A: low polyreactivity

Q: Which “polyreactivity (PSR sort gate)” value does the source give for “QVQLVESGGGLVQAGGSLRLSGAASGYIFLGNAMGWYRQAPGKERELVAAISRSGGSTYYADSVKGRFTISRDNAKNTVYFHMNSLKPEYTAVYYCAADLPNPKWYGYDYWGQGTQVNVSS” here?
A: high polyreactivity

Q: Which “polyreactivity (PSR sort gate)” value does the source give for “QVQLVESGGGLVQAGGSLRLSCAASGITFYRNAMGWYRQAPGKERELVAAIDVGDGTYYADSVKGRFTISRDNAKNSVYFQMNSLKPEDTAVYYCNKTFLFLEYDSWGQGTQVTVSS” here?
A: low polyreactivity

Q: For “QVQLVDSVGGLVQAGGSLRLSCAASGLTFLGNAMGWYRQATGKEREFVAGIDRSSVSTYADSVKGRFTISRDNAKNTVYLQMNSLKPEDTEVYYCAVVEYGIWVGWVPYATFGMNYWGQGTQVTVSS”, which “polyreactivity (PSR sort gate)” value is on record?
A: high polyreactivity

Q: With “QVQLEESGGGLVQAGGSLRLSCAASGGIFIFYAMGWYRQAPGKERELVAAISNVSSTNYADSVKGRFTISRDNAKNSVYLQMNSLKPEDTAVYYCNAVGVPSEYYSWGHGTQVTVSS” as the sequence, how does the “polyreactivity (PSR sort gate)” value read?
A: low polyreactivity

Q: Which “polyreactivity (PSR sort gate)” value does the source give for “QVQLVESGGGLVKAGGSLSLICAASGFTFGVYAMGRYRQAPGKERELVAAIRRTGGSTYYADSVKGRFTISRDNAKNTVYLQMNSLKPEDTAVYYCAAHAISYQSRYRYRYGSVDYWGQGTQVTVSS” here?
A: high polyreactivity

Q: Which “polyreactivity (PSR sort gate)” value does the source give for “QVQLVESGGGLVQAGGSLRLSCAASGFIFYGNAMGWYRQAPGKERELVAAITRRGGRTYYADSVKGRFTISRDNAKNTVYLQMNSLKPEDTAVYYCAKDRGRSLEMDYWGQGTQVTVSS” here?
A: high polyreactivity

Q: Which “polyreactivity (PSR sort gate)” value does the source give for “QVQLVESGGGLVQAGGSLRLSCAASGRTFKPYAMGWYRQAPGKERELVAAISSGVSTHYADSVKGRFTISRDNAKNTVYLQMNSLKPEDTAVYYCAADRSSQFDLDYWGQGTRVTVSS” here?
A: low polyreactivity

Q: With “QVQIVDSGGGLVQAVGSLRLSCAASGSIIKKYAMGWYRQAPGKERELVAAISSTCGSTKYADSVKGRFTISRDNAKNTVYLQMNSLKAEDTAVYYCAVRYKWPYDYWGQGTQVTVSS” as the sequence, how does the “polyreactivity (PSR sort gate)” value read?
A: high polyreactivity

Q: Which “polyreactivity (PSR sort gate)” value does the source give for “QVQLVESGGGLVQAGGSLRLSCAASGRTFGAYSMGWYRQAPGKERELVASISRSGGSTYYADSVKGRFTISRDNAKNTVYLQMNSLKPEETAVYYCAARVYRYGAMDYWGQGTQVTVSS” here?
A: high polyreactivity

Q: For “QVQLVESGGGLVQAGGSLRLSCAASGSTFGNYAMGWYRQAPGKERELVATISRSGGSTYYADSVKGRFTISRDNAKNTVYLQMNSLKPEDTAVYYCNRRYYTRKPDYNSWGQGTQVTVSS”, which “polyreactivity (PSR sort gate)” value is on record?
A: high polyreactivity

Q: With “QVQLVESWGRLVQAGGSLRLTCAASGFIFSSYAMGWYRQAPGKERELVAAISQSGGRTYYADSVKGRFTISRDNAKNTVYLQMNSLKPEDTAVYYCNTLYTIGAVYYWGQGTQVTVSS” as the sequence, how does the “polyreactivity (PSR sort gate)” value read?
A: high polyreactivity

Q: With “QVHLVESGGGLVQAGGSLRLTCAASGSIFLWNAMGWYRQAPGTEREVVAAITWRGGSTYYADSVKGRFTISRDNEKYTVYLQMNSLKPEDTAVYYCAADSYDWMDYWGQGTQVTVSS” as the sequence, how does the “polyreactivity (PSR sort gate)” value read?
A: low polyreactivity

Q: Which “polyreactivity (PSR sort gate)” value does the source give for “QVQLVESGGGLVQAGGSLRLSCAASGRTFSSYAMGWYRQAPGKERELVAAINSGGSTNYADSVKGRFTISRDNAKNTVYLQMNSLKPEDTAVYYCNAVTFWGLGYDYWGQGTQVTVSS” here?
A: low polyreactivity

Q: For “QVQLVESGGGLVQAGGSLRLSCAASGFTFGRYAMGRYRPAPGKVRELVATITRTGSTNYADSVKGRFTISRDNAKNTVDLQMHSLKPEDTAVYYCNAVYSACRYVKYDYWGQGTQVTVSS”, which “polyreactivity (PSR sort gate)” value is on record?
A: low polyreactivity

Q: Which “polyreactivity (PSR sort gate)” value does the source give for “QVQLVESGGGLVQAGGSLRLSCAASGIIFGDKAMGWYRQAPGKERELVAAITIGGTSTYYADSVKGRFTISRDNAKNTVYLQMNRLKPEDTAVYYCAKTILYDCDYWGQGTQVTVSS” here?
A: low polyreactivity

Q: For “QVQLVESGGGLVQAGGSLRLSCAASGITFSYYAMGWYRQAPGKERELVAAINSSGGSTYYADSVKGRFTISRDNAKNTVYLQMNSLKPEDTAVYYCAADSFLYPYAEFGYWGQGTQVTVSS”, which “polyreactivity (PSR sort gate)” value is on record?
A: low polyreactivity

Q: For “QVQLVESGGGLVQAGGSLRLGCAASGGTITSYAMGWYRQAPGKERELVAAITVSGSSTYYADSVKGRFTISRDNAKNTVYLQMNSLKPEDTAVYYCAARWRRFQFDYWGQGTQVTVSS”, which “polyreactivity (PSR sort gate)” value is on record?
A: high polyreactivity

Q: With “QVQLVESGGGLVQAGGSLRLSCAASGRTCPYYVMGWFRQAPGKERELVAAIRRTGGSTYYADSVKGRFTISRDNAKNTVYLQMNSLKPEDTAVYYFTKSHSILYEGGYDYWGQGTQVTVSS” as the sequence, how does the “polyreactivity (PSR sort gate)” value read?
A: low polyreactivity

Q: Which “polyreactivity (PSR sort gate)” value does the source give for “QVQLEESGGGLVQAVGSLRLTCAASGLIFKSNAMGWYRQAPGKERQLVAAITRTGGSTYYADSVKGRFTISRDNAKNTVYLQMNSLKPEDTAVYYCAVLYDRYGRAYYYWGQGTQVTVSS” here?
A: high polyreactivity

Q: With “QVQLVESGGGLVQAGGSHRLSCAASGRIFDKYAMGWYRQAPGKERELVATITSSGGSTYYADSVKGRFTISRDNAKNTVYLQMNSLKPEDTAVYYCAALDRTGWGYDYWGQGTQVTVSS” as the sequence, how does the “polyreactivity (PSR sort gate)” value read?
A: low polyreactivity

Q: For “QVQLVESGGGLVQAGGSLRLSCAASGSIFGRYGMGWYRQAPGKERELVAAITSGTRTNYADSVKGRFTISRDNAKTTVYLQMNSLKPEDTAVYYCNALRLRGNYEYGYWGQGTQVTVSS”, which “polyreactivity (PSR sort gate)” value is on record?
A: low polyreactivity

Q: With “QVQLVESGGGLVQAGGSLRLSCAASGLTFYRYAMGWYRQAPGKERELVAAITSSGRTNYADSVKGRFTISRDNAKNTVYLQMNSLKPEDTAVYYCNAVRRTFNGPGSSQGYDYWGQGTQVTVSS” as the sequence, how does the “polyreactivity (PSR sort gate)” value read?
A: high polyreactivity

Q: Which “polyreactivity (PSR sort gate)” value does the source give for “QDQLVESGGGLVQAGGSLRLSCAASGRTFPRNAMGWYRQAPGKERELVAAISSTGDSTYYADSVKGRFTISRDNAKNTVYLQMNSLKPEDTAVYYCHYPYDYWGQGTQVTVSS” here?
A: low polyreactivity

Q: For “QVQLQESGGGLVQAGGSLRLSCAASCTISQEDWMGWYRQAPGKEREFVAAIGLGSNTNYAESLKGRFTISRDNAKKTVYLQLHSLKPEDTAVYYCAVSVWQYSDHVYGGQGTQVTVSS”, which “polyreactivity (PSR sort gate)” value is on record?
A: low polyreactivity

Q: With “QVQLVESGGGLVQAGGSLRLSCAASGRIFWYYAMGWSRQAPGKERELVATISSRSGSTYYADSVKGRFTISRDNAKNTVYLQMNSLKPEDTAVYYCAAGTPYYLGYRHNTGLFDYWGQGTQVTVSS” as the sequence, how does the “polyreactivity (PSR sort gate)” value read?
A: high polyreactivity

Q: Which “polyreactivity (PSR sort gate)” value does the source give for “QVQLVESGGGLVQAGGSLRLSCAASGITFYGYVMGWYRQAPGKERELVAAISVRGGSTYYADSVKGRFTISRDNAKNTVYLQMNSLKPEDTAVYYSAAWSYAYYYRLRYVSHDYWRQGTQVTVSS” here?
A: high polyreactivity

Q: Which “polyreactivity (PSR sort gate)” value does the source give for “QVQLVESGGGLVQAGGSLRLSCAASGRIFYANAMGWYRQAPGKERELVAGISSGGITNYADSVKGRFTISRDNAKITVYLQMNSLKPEDTAVYYCAVESWNRWRNRNDYWGQGTQVTVSS” here?
A: low polyreactivity

Q: Which “polyreactivity (PSR sort gate)” value does the source give for “QDQLVESGGGLRQAGGSLRLSCAASGPTFFVYAMGWYTQAPGKERELVAAISWNGGSTFYADSVKGRFTISRDNAKNTVYIQMNSLNPEDTAVYYCAAVESRGWGGYGYWGQGTQVTVSS” here?
A: high polyreactivity

Q: For “QVQLVESGGGLVQAGGSLRLSCAASGSIFYTYAKGWYRQAPGKQRELVAGISWSGSDTYYADSVKGRFTISRDNAKNTVYLQMNSLKPEDTAVYYCNAETSTRKNFGYDYWGQGTQVTVSS”, which “polyreactivity (PSR sort gate)” value is on record?
A: low polyreactivity
